Results reported in paper PMC11257990 (2024).

Molecular target: UBE2L3 (human, UniProt P68036 1-154)
Test: ITC

Sequence of UBE2L3 (P68036 whole entry): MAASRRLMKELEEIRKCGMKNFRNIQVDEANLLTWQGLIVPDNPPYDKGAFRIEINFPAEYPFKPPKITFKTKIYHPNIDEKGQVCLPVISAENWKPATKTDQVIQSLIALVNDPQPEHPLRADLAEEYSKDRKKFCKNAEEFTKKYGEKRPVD

B1: CUL9^ARIH-RBR (domain or fragment)
chain: SPEAVATLASLQLPAGRTMSPQEVEGLMKQTVRQVQETLNLEPDVAQHLLAHSHWGAEQLLQSYSEDPEPLLLAAGLCVHQAQAVPVRPDHCPVCVSPLGCDDDLPSLCCMHYCCKSCWNEYLTTRIEQNLVLNCTCPIADCPAQPTGAFIRAIVSSPEVISKYEKALLRGYVESCSNLTWCTNPQGCDRILCRQGLGCGTTCSKCGWASCFNCSFPEAHYPASCGHMSQWVDDGGYYDGMSVEAQSKHLAKLISKRCPSCQAPIEKNEGCLHMTCAKCNHGFCWRCLKSWKPNHKDYYNCSAMVSKAARQEKRFQDYNERCTFHHQAREFAVNLRNRVSAIHEVPPPRSFTFLNDACQGLEQARKVLAYACVYSFYSQDAEYMDVVEQQTENLELHTNALQILLEETLLRCRDLASSLRLLRADCLSTGMELLRRIQERLLAILQHSAQDFRVGLQSPSVEAWEAKGPNMPGSQPQASSGPEAEEEEEDDEDDVPEWQQDEFDEELDNDSFSYDESENLDQETFFFGDEEEDEDEAYD
  Kd: 12 µM
